Experimental data reported in patent US20240261340A1, “Cutibacterium Acnes Biomimetic, Prebiotic, Probiotic and Postbiotic Compositions for Treatment of Skin Conditions” (Johnson & Johnson Consumer Inc., priority 2023, published 2024).

Test system: Normal Human Epidermal Keratinocytes (NHEK)
Assay: Lipid accumulation fluorescence assay (AdipoRed) on NHEK total lipids
Type: cell-based
Conditions: 10 μg/ml, positive control
Procedure: Lipid accumulation using a fluorescence assay was then assessed. In particular, following the results of the transcriptomic analysis, NHEK were treated for 6 days with conditioned media at concentrations of 0.1, 0.5, 1, and 2%. Adiponectin 10 μg/ml (Sigma, St Quentin Fallavier, France), known in the literature to induce lipid production in cell cultures, was used as positive control. To quantify and visualize total lipids after the 6 days of treatment, cells were treated with AdipoRed™ Assay Reagent (Lonza, Verviers, Belgium) a lipophilic reagent which fluoresces (excitation: 485 nm, emission: 572 nm). The intensity of the fluorescence is proportional to the lipid concentration and can be measured using a spectrophotometer (Envision, Perlin Elmer, Villebon-sur-Yvette, France). Images were acquired using a fluorescence microscope (Axio imager, ZEISS, Rueil Malmaison France) with magnification ×20.
Adiponectin induced an increase in fluorescence signal after 6 days of treatment (+25%) which validated the test. […] This experiment was repeated increasing the concentration of the conditioned media to 5% and 10% and reducing the time of treatment to 1 day. Non-conditioned media at 5% and 10% were also tested as negative controls and Adiponectin (10 μg/ml) as positive control.

B1: Adiponectin (protein, UniProt Q15848 19-244, looked up)
Adiponectin: ETTTQGPGVLLPLPKGACTGWMAGIPGHPGHNGAPGRDGRDGTPGEKGEKGDPGLIGPKGDIGETGVPGAEGPRGFPGIQGRKGEPGEGAYVYRSAFSVGLETYVTIPNMPIRFTKIFYNQQNHYDGSTGKFHCNIPGLYYFAYHITVYMKDVKVSLFKKDKAMLFTYDQYQENNVDQASGSVLLHLEVGDQVWLQVYGEGERNGLYADNDNDSTFTGFLLYHDTN
notes: known in the literature to induce lipid production in cell cultures; positive control (Sigma)
1 day of treatment
  increase in fluorescence (total lipids): 250%
6 days of treatment
  increase in fluorescence signal (total lipids): +25%
